The values below come from paper PMC2806950, “Dissection of the DNA Mimicry of the Bacteriophage T7 Ocr Protein using Chemical Modification” (Journal of Molecular Biology, 2009).

What all share (conditions): both partners purified
The target of assay [1] is T1, M.EcoKI, DNA methyltransferase component (M2S1) of the EcoKI type I R/M system (E. coli K12, UniProt P08957 1-529; P05719 1-464).
T1 construct: M subunit (DNA methyltransferase activity) of the EcoKI type I R/M system of E. coli K12; also called methyltransferase core; copies: 2 + 1
T1 sequence (looked up) 1: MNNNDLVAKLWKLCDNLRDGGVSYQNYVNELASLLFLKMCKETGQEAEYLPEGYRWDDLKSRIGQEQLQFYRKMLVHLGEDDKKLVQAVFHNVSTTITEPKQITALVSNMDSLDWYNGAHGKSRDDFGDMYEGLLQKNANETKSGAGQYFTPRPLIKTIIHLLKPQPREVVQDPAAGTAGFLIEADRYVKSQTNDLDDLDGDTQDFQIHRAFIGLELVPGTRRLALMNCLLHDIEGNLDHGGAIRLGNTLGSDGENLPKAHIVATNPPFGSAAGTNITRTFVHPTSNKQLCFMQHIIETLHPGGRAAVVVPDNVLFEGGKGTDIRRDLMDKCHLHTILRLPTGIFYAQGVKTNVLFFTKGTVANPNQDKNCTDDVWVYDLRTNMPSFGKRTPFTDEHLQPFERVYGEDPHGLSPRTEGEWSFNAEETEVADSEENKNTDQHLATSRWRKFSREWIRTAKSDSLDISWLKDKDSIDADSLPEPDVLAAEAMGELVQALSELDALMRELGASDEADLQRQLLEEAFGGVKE
T1 sequence (looked up) 2: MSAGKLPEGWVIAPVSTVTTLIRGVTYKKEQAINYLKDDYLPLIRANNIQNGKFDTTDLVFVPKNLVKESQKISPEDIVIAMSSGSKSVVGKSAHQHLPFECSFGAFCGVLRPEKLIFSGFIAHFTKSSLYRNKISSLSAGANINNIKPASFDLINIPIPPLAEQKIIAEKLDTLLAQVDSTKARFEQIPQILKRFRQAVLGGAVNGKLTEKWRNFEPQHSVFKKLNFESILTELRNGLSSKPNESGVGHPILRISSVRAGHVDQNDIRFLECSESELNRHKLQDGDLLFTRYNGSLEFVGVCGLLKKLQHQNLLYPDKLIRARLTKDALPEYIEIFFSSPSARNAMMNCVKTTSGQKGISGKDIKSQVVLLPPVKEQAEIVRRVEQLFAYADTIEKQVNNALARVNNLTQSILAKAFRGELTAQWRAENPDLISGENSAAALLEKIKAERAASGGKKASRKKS
Briefly: ITC; Ocr (typically 40 uM) titrated into M.EcoKI (4 uM); 20 mM Tris-HCl pH 8.0, 6 mM MgCl2, 7 mM 2-mercaptoethanol, 100 uM SAM, with or without 500 mM NaCl; 10 to 30 °C. (Isothermal titration calorimetry measures the heat released or taken up as one component is titrated into another.)

For assay [2], the target named is T1, M.EcoKI, DNA methyltransferase …. The assay is described as follows: fluorescence polarisation; competition with DNA: M.EcoKI titrated into 50 nM Ocr and 2 nM of a 21-bp DNA duplex fluorescently labelled at the 5' end; anisotropy of the DNA monitored.
Assay [3] has the same target. The assay is described as follows: ITC; as the Tris experiment but 20 mM Hepes in place of Tris-HCl, 25 °C, no NaCl.

Usually Kd stands for the equilibrium constant for the complex coming apart. Higher therefore signals a looser complex.

B1: Ocr (overcome classical restriction) protein of bacteriophage T7, unmodified (natural protein, UniProt P03775 1-117, looked up)
chain: MAMSNMTYNNVFDHAYEMLKENIRYDDIRDTDDLHDAIHMAADNAVPHYYADIFSVMASEGIDLEFEDSGLMPDTKDVIRILQARIYEQLTIDLWEDAEDLLNEYLEEVEEYEEDEE
notes: Ocr, product of gene 0.3 of bacteriophage T7; 116-amino-acid monomer as printed; Homodimer; also called WT; wild type Ocr; source: plasmid pAR2993 with the gene encoding WT Ocr
Take B1: the values for the dH in assay [1] and in assay [3] were -20.6 kcal/mol and -21.5 kcal/mol, respectively. Also, the “stoichiometry N” value in assay [1] is 1 Ocr dimer per molecule of M.EcoKI. Further, the Kd in assay [2] worked out at 0.044 nM.
